Results on one molecule are retold here after US20220396627A1.

Test [1] has as its target Human Siglec-9-Fc (recombinant human Siglec-9 extracellular domain Q18-G348 fused to human IgG1 Fc) (human). The test can be described thus: BLI binning, hSiglec-9-Fc on AHC sensor; competitor bound first (row): 2F15.
Test [2] has the same target. The test can be described thus: BLI binning, hSiglec-9-Fc on AHC sensor; competitor bound first (row): 9C15.
The target is the same in test [3]. The test can be described thus: BLI binning, hSiglec-9-Fc on AHC sensor; competitor bound first (row): 9D21.
Test [4] shares this target. Briefly: BLI binning, hSiglec-9-Fc on AHC sensor; competitor bound first (row): 12G23.
For test [5] the target is unchanged. Briefly: BLI binning, hSiglec-9-Fc on AHC sensor; competitor bound first (row): 12L19.
Test [6] has the same target. The test can be described thus: BLI binning, hSiglec-9-Fc on AHC sensor; competitor bound first (row): 12P18.
For test [7] the target is unchanged. The test can be described thus: BLI binning, hSiglec-9-Fc on AHC sensor; competitor bound first (row): 13J19.
For test [8] the target is unchanged. Briefly: BLI binning, hSiglec-9-Fc on AHC sensor; competitor bound first (row): 13O18.
For test [9] the target is unchanged. The test can be described thus: BLI binning, hSiglec-9-Fc on AHC sensor; competitor bound first (row): 3L02 (self).
Test [10] shares this target. The test can be described thus: BLI binning, hSiglec-9-Fc on AHC sensor; competitor bound first (row): 13H10 (printed 13H110).

Chain of Human Siglec-9-Fc (recombinant human Siglec-9 extracellular domain Q18-G348 fused to human IgG1 Fc) (human) (chain, as listed by the source limits assumed): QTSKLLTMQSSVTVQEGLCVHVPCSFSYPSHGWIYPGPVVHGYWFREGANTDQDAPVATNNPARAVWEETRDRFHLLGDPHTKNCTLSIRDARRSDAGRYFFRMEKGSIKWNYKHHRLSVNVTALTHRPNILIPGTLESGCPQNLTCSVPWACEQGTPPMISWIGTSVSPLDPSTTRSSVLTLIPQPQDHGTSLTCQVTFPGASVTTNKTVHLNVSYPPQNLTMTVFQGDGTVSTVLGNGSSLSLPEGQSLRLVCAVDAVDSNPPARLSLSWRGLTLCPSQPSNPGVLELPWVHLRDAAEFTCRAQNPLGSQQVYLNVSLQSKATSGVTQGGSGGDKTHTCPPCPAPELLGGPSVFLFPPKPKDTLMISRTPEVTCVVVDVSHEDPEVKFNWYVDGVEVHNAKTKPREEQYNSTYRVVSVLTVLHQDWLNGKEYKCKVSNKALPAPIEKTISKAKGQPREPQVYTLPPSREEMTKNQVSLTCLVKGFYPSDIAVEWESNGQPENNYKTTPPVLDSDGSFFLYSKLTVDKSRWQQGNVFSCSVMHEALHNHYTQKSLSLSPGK

B1: 3L02 (antibody, V domains shown)
VH: DVQLQESGPGMVKPSQSLSLTCTVTGYSITSGYDWHWIRHFPGNKLEWMGYISYSAGTNYNPSLKSRISITHDTSKNHFFLKLNSVTTEDTATYYCAREGLTAYWYFDVWGTGTTVTVSS
VL: DIVMTQSQKFMSTSVGDRVSVTCKASQTVGTNVAWYQQKPGQSPKPLIYSASYRYSGVPDRFTGSGSGTDFTLTISNVQSEDLAEYFCQQYDSFPLTFGSGTKLEIK
As for B1, the maximum binding nm shift in test [1] is 0.099 nm; in test [2], 0.14 nm; in [3], 0.188 nm; in test [4] it was 0.031 nm; in [5], -0.053 nm; in test [6] it was 0.214 nm. Also, the maximum binding nm shift in [7] was 0.085 nm; in test [8], 0.091 nm; in [9], 0 nm; in [10], -0.064 nm.
